The values below come from patent US20250340666A1 (REGENTS OF THE UNIVERSITY OF COLORADO A BODY CORPORATE, published 2025).

For experiment [1], the target named is T1, CD99 epitope peptide antigen (15 amino acid sequence, SEQ ID NO: 1) (human).
T1 construct: It was used with an SA (streptavidin) biosensor
T1 peptide: DGENDDPRPPNPPKC
Put plainly: BLI, OctetRED 384, SA biosensor. Here is the method:
The affinity of one embodiment of the disclosed anti-CD99 antibody was tested against the CD99 epitope. Specifically, the epitope was a peptide antigen and the anti-CD99 antibody was the embodiment of 10D1-1 human IgG4/light chain1. As shown in FIG. 20. affinity was analyzed using an SA biosensor, and association and dissociation constants were monitored using OctetRED 384. […] 400 pM, 350 pM, 300 pM, 250 pM, 200 pM, 150 pM, 100 pM, 90 pM, 80 pM, 70 pM. 60 pM, 50 pM, 40 pM, 30 pM, 20 pM, or 10 pM, and less than about 1 pM, 10 pM, 50 pM, 100 pM, 200 pM, 300 pM, 400 pM, 500 pM, 600 pM. 700 pM, 800 pM, or900 pM.
(In BLI a coated tip is dipped into the sample, and binding shifts an interference pattern.)

In experiment [2] the target is T2, human CD99 (human, UniProt P14209 23-185).
T2 construct: whole, on cells; Endogenous CD99 on patient-derived DIPG cells (flow cytometry) and DIPG tumor tissue sections (IHC); also called MIC2/CD99; cell surface CD99 protein
T2 sequence (looked up): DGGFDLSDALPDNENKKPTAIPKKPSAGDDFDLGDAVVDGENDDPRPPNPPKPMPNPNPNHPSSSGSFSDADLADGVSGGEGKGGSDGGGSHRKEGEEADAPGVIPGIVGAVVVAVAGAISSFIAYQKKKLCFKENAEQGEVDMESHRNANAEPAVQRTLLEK
Briefly: flow cytometry on DIPG cells: pre-incubation with 10D1-CD99 antibody, then detection of CD99 with the commercial 0662 CD99 antibody (the competitor). Here is the method: The engagement/binding of the presently disclosed 10D1-CD99 antibody to the human CD99 epitope was tested.

B1: 10D1-CD99 antibody (antibody, V domains shown)
VH: EVQLQQSGPELVKPGASVKISCKASGYSFTGYYMHWVKQSHVKSLEWIGRINPYTGATTYNQIFKDKATLTLDKSSSTAYMELHSLTSEDSAIFYCARYYYGNNYNVYLDYWGQGTTLTVSS
VL: DIQLTQTTSSLSASLGDRVTISCSASQGISNYLSWYQQKPDGTFKLLIYYTSTLHSGVPSRFSGSGSGTDYSLTISNLEPEDIATYYCQQYSNLPWTFGGGTRLEIK
notes: also called rh10D1 anti-CD99 antibody; rh10D1-CD99
On to B1, for which, in experiment [1], the Kd is 436 pM, the koff amounted to 0.000744 s⁻¹ and the kon is roughly 1.71e+06 M⁻¹ s⁻¹. In addition, the binding result in experiment [2] is “binds”.

As a reminder, the Kd is the equilibrium constant for the complex coming apart. Lower therefore signals a tighter complex. What is called koff is the first-order rate constant of dissociation. Usually kon stands for the second-order rate constant of association. The low end stands for slow association, the high end for fast association.
